Measured values published in PMC5868845.

Molecular target: 4F2hc (UniProt P08195)
Experiment: co-IP from transfected 293FT, western blot
Settings: reference: Flag-NT wild type

Row | binding against the reference (sites S233) | binding against the reference (sites S237) | Substance
1 | lost | – | Girdin NT domain, 1-256 (from UniProt Q3V6T2) Flag-NT S233A
2 | – | lost | Girdin NT domain, 1-256 (from UniProt Q3V6T2) Flag-NT S237A
